Measured values reported in patent US20210246166A1 (Bayer, published 2021).
Numbered stars: 1 amine (or outer) side, 2 acyl side, 3 side chain; on linkers, the order of the positions; unused ones are H or OH. Bridge positions count the residues as written; N and C are the ends. Square brackets hold non-standard residues; d marks the D form. Ends that are not written are not given here. * marks the point of attachment. Freidinger's Lactam = (2S)-2-[(3R)-3-amino-2-oxopyrrolidin-1-yl]-4-methylpentanoic acid (Freidinger's lactam), CC(C)C[C@@H](C(=O)[*:2])N1CC[C@@H](N[*:1])C1=O; X15 = (3S)‑2‑azaspiro(4.4)nonane‑3‑carboxylic acid, O=C([C@@H]1CC2(CCCC2)CN1[*:1])[*:2]; Ida = iminodiacetic acid, O=C(CN(CC(=O)[*:3])[*:1])[*:2]; X5 = Tetrahydropyranyl‑4‑acetic acid, O=C(CC1CCOCC1)*; Oic = O=C(O)[C@@H]1C[C@@H]2CCCC[C@@H]2N1; tBuAla = CC(C)(C)C[C@H](N)C(=O)O; Aad = N[C@@H](CCCC(=O)O)C(=O)O; Pen = CC(C)(S)[C@H](N)C(=O)O; NMeC = CN[C@@H](CS)C(=O)O; βAla = NCCC(=O)O; Sar = CNCC(=O)O

T1: recombinant human MASP1 active protease (amino acids 297-699, C-terminal His Tag) (human, UniProt P48740 297-699)
T1 sequence: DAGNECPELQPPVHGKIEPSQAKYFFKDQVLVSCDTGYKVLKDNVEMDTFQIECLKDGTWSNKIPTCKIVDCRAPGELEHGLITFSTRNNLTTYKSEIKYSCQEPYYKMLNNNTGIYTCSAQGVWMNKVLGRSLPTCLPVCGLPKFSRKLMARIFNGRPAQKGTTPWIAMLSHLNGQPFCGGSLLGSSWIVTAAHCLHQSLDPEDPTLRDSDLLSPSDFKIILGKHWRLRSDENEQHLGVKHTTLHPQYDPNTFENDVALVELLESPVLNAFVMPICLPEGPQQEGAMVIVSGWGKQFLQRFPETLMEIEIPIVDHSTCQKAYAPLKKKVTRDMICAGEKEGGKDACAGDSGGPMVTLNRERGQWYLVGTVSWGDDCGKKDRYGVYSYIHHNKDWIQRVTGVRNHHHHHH

T2: recombinant rat MASP1 active protease (amino acids 302-704, C-terminal His Tag) (rat, UniProt Q8CHN8 302-704)
T2 sequence: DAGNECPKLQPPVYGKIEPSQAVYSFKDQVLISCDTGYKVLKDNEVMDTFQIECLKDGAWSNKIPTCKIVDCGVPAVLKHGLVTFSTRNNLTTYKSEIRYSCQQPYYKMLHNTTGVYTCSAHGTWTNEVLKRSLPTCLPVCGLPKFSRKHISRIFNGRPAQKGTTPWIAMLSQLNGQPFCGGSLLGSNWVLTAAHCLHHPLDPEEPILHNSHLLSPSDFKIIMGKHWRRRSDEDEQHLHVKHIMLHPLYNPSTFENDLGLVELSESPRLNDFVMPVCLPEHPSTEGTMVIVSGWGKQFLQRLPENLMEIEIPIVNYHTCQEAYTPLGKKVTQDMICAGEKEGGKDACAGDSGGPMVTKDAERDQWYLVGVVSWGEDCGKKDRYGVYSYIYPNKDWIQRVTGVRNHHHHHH


Tests used:
Assay in all cases: cell-based or functional assay
[1] = biological target: T1, recombinant human MASP1 active protease …
[2] = biological target: recombinant human MASP2 active protease (amino acids 297-686, C-terminal His Tag) (human, UniProt O00187 297-686)
[3] = biological target: T2, recombinant rat MASP1 active protease …
[4] = biological target: recombinant rat MASP2 active protease (amino acids 296-685, C-terminal His Tag) (rat, UniProt Q9JJS8 296-685)
Chain of recombinant rat MASP2 active protease (amino acids 296-685, C-terminal His Tag) (Q9JJS8 other isoform, or with tags, fused parts or gaps limits assumed): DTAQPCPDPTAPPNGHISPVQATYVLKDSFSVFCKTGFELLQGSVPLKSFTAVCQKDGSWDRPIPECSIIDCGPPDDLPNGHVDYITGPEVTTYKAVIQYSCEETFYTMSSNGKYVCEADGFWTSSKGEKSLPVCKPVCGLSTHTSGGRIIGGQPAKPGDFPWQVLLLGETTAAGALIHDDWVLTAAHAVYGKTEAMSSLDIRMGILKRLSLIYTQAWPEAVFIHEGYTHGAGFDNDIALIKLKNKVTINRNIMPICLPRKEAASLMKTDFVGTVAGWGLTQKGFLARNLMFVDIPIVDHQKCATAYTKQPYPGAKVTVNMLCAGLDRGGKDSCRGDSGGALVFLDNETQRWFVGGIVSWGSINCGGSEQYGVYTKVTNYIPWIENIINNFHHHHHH

Chain of recombinant human MASP2 active protease (amino acids 297-686, C-terminal His Tag) (O00187 other isoform, or with tags, fused parts or gaps limits assumed): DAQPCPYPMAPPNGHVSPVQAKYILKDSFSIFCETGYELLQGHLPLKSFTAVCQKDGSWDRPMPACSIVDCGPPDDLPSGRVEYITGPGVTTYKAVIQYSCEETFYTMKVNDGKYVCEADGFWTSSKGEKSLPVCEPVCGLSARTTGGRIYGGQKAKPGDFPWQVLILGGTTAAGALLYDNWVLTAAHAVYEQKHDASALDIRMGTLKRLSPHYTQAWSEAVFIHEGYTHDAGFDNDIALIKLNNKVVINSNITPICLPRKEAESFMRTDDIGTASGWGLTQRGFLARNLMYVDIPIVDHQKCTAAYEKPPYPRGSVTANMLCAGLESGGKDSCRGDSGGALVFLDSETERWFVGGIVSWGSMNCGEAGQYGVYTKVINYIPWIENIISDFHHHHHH

Binder | human MASP1 IC50 [1] | human MASP2 IC50 [2] | rat MASP1 IC50 [3] | rat MASP2 IC50 [4]
AICSRS[Aad]PPI[NMeC]IPD-NH2 (disulfide 3-11; N-terminus assumed; SMILES CC[C@H](C)[C@H](NC(=O)[C@H](C)N)C(=O)N[C@H]1CSSC[C@@H](C(=O)N[C@H](C(=O)N2CCC[C@H]2C(=O)N[C@@H](CC(=O)O)C(N)=O)[C@@H](C)CC)N(C)C(=O)[C@H]([C@@H](C)CC)NC(=O)[C@@H]2CCCN2C(=O)[C@@H]2CCCN2C(=O)[C@H](CCCC(=O)O)NC(=O)[C@H](CO)NC(=O)[C@H](CCCNC(=N)N)NC(=O)[C@H](CO)NC1=O) [Example 314: AIC+SRS-(AAD)-PP-I-((N-Me)C)+IPD-NH2] | 21 nM | 260 nM | – | –
[Sar]ICSRSLP[Oic]I[Pen]IP[Freidinger's Lactam]-OH (disulfide 3-11; N-terminus assumed; SMILES CC[C@H](C)[C@H](NC(=O)CNC)C(=O)N[C@H]1CSSC(C)(C)[C@@H](C(=O)N[C@H](C(=O)N2CCC[C@H]2C(=O)N[C@@H]2CCN([C@@H](CC(C)C)C(=O)O)C2=O)[C@@H](C)CC)NC(=O)[C@H]([C@@H](C)CC)NC(=O)[C@@H]2C[C@@H]3CCCC[C@@H]3N2C(=O)[C@@H]2CCCN2C(=O)[C@H](CC(C)C)NC(=O)[C@H](CO)NC(=O)[C@H](CCCNC(=N)N)NC(=O)[C@H](CO)NC1=O) [Example 527: ((N-Me)G)-IC+SRSLP-(Oic)-I-(Pen)+IP-(Freidinger's Lactam)-OH] | – | – | 240 nM | 42 nM
X5-ICSRS[tBuAla]PPI[NMeC]I-NH2 (disulfide 2-10; SMILES CC[C@H](C)[C@H](NC(=O)[C@@H]1CSSC[C@H](NC(=O)[C@@H](NC(=O)CC2CCOCC2)[C@@H](C)CC)C(=O)N[C@@H](CO)C(=O)N[C@@H](CCCNC(=N)N)C(=O)N[C@@H](CO)C(=O)N[C@@H](CC(C)(C)C)C(=O)N2CCC[C@H]2C(=O)N2CCC[C@H]2C(=O)N[C@@H]([C@@H](C)CC)C(=O)N1C)C(N)=O) [Example 305: (Tetrahydropyranyl-4-acetic acid)-IC+SRS-((tBu)A)-PPI-((N-Me)C)+I-NH2] | 19 nM | 9.4 nM | – | –
[βAla]ICSRSLPPICIPD-OH (disulfide 3-11; N-terminus assumed; SMILES CC[C@H](C)[C@H](NC(=O)CCN)C(=O)N[C@H]1CSSC[C@@H](C(=O)N[C@H](C(=O)N2CCC[C@H]2C(=O)N[C@@H](CC(=O)O)C(=O)O)[C@@H](C)CC)NC(=O)[C@H]([C@@H](C)CC)NC(=O)[C@@H]2CCCN2C(=O)[C@@H]2CCCN2C(=O)[C@H](CC(C)C)NC(=O)[C@H](CO)NC(=O)[C@H](CCCNC(=N)N)NC(=O)[C@H](CO)NC1=O) [Example 306: (beta-A)-IC+SRSLPPIC+IPD-OH] | 20 nM | 450 nM | – | –
[Sar]ICSRS[tBuAla]P[X15]I[Pen]IPD-OH (disulfide 3-11; N-terminus assumed; SMILES CC[C@H](C)[C@H](NC(=O)CNC)C(=O)N[C@H]1CSSC(C)(C)[C@@H](C(=O)N[C@H](C(=O)N2CCC[C@H]2C(=O)N[C@@H](CC(=O)O)C(=O)O)[C@@H](C)CC)NC(=O)[C@H]([C@@H](C)CC)NC(=O)[C@@H]2CC3(CCCC3)CN2C(=O)[C@@H]2CCCN2C(=O)[C@H](CC(C)(C)C)NC(=O)[C@H](CO)NC(=O)[C@H](CCCNC(=N)N)NC(=O)[C@H](CO)NC1=O) | – | – | 26 nM | 74.1 nM
{Tetrahydro‑2H‑pyran‑3‑ylacetic acid}-ICSRSLP[Oic]I[Pen]IP-NH2 (disulfide 2-10) [Example 304: (Tetrahydro-2H-pyran-3-ylacetic acid)-IC+SRSLP-(Oic)-I-(Pen)+IP-NH2] | 19 nM | 27 nM | – | –
[dP]ICSRSLP[Oic]I[Pen]IP[Ida]-OH (disulfide 3-11; also: HCl salt) [Example 528: pIC+SRSLP-(Oic)-I-(Pen)+IP-(Ida)-OH (HCl salt)] | – | – | 420 nM | 8.2 nM
